Data on three molecules can be found in patent publication US20100266695A1 (University of California, published 2010).

Where no end group is shown, it is not given here.

The experiment concerns the target αvβ3 integrin on HeLa cells (human, UniProt P06756 31-1048; P05106 27-788). Kind of experiment: cell-based or functional assay.

Sequence of αvβ3 integrin on HeLa cells (P06756 31-1048, chain 1 of 2): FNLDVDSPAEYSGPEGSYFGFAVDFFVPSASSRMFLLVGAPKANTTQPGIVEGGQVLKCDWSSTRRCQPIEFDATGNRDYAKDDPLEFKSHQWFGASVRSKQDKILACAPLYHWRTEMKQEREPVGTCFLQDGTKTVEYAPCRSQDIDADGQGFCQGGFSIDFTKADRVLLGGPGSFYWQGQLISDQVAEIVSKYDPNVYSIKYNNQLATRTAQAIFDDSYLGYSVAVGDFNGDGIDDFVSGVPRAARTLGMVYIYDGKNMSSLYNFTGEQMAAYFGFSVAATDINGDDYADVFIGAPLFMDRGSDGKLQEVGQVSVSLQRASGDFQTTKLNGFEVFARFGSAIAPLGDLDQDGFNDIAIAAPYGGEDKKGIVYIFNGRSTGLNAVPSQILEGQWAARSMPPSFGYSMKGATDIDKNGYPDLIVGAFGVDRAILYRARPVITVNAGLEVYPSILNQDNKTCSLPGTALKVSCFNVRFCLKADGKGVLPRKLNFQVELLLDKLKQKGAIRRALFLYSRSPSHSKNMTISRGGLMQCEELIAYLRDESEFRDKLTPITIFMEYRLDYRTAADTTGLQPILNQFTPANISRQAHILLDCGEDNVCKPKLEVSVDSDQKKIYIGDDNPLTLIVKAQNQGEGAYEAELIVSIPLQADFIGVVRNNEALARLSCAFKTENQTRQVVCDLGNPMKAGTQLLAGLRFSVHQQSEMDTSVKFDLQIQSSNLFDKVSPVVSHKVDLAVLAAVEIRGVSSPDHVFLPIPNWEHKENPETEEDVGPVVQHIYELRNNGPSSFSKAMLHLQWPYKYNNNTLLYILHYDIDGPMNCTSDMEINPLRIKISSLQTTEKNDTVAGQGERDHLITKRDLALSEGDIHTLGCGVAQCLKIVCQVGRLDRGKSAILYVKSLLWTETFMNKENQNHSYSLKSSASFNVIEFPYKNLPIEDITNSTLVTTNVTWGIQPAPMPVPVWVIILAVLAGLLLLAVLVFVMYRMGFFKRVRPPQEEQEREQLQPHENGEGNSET
Sequence of αvβ3 integrin on HeLa cells (P05106 27-788, chain 2 of 2): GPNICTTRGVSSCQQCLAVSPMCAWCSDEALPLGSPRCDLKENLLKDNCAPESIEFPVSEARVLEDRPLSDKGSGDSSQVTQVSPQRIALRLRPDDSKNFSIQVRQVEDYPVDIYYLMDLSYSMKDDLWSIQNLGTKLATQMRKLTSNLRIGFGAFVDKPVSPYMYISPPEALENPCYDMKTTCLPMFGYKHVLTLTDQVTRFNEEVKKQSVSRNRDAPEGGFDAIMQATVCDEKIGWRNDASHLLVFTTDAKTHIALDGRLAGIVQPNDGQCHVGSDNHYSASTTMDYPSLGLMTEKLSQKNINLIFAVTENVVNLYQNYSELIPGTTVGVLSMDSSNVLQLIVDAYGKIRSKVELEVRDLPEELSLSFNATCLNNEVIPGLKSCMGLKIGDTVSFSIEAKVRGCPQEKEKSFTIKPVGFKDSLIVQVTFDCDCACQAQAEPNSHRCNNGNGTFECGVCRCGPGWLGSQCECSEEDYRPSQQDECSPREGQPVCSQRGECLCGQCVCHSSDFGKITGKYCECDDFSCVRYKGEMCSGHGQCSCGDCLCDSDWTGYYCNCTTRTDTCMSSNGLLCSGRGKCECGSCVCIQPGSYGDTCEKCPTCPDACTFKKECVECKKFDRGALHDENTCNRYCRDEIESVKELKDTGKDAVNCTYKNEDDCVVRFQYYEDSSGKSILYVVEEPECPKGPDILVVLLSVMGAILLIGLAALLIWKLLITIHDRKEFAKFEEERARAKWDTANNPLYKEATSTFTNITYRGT

B1: DNA/PEI-Au-Cap-RGD-ASA polyplex: DNA/poly(ethylene imine) polyplex covalently modified with Au-Cap-RGD-ASA nanoparticles (other)
peptide 1: Ac-CCVVVTGRGDSPSSK-OH
peptide 2: CCVVVT
modifications: also: peptides on gold nanoparticle via thiol/gold, azidosalicylic acid added, residue not given here, crosslinked to PEI, bound to DNA/PEI polyplex
B1: the “Integrin Sensitivity Factor (ISF), ratio of the transfection level achieved with high and low αvβ3 density cells” value was found to be 60; the “luciferase expression in low αvβ3 density HeLa cells, against unmodified polyplexes” value was found to be 5.4 fold; the “transfection efficiency in high αvβ3 density HeLa cells, against unmodified polyplexes” value was 35 fold; the “transfection efficiency, HeLahigh against HeLalow” value was 7 fold.
In the case of Ac-GCGYGRGDSPSSK-NH2 [free RGD peptide (Ac-GCGYGRGDSPSSK-NH2)], the “IC50 concentration at which 50% of cell adhesion is inhibited (anti-adhesion assay, HeLa cells on vitronectin)” value is ~100 µM.

B2: Au-Cap-RGD nanoparticles (RGD nanoclusters): 5 nm gold nanoparticles modified with a mixture of Cap and Cap-RGD peptides (peptide)
peptide 1: Ac-CCVVVTGRGDSPSSK-OH
peptide 2: CCVVVT-OH
modifications: also: peptides attached to 5 nm gold nanoparticle via thiol/gold, mixture of Cap and Cap-RGD
In the case of B2, the IC50 level of cell adhesion inhibition, as equivalent RGD peptide (anti-adhesion assay, HeLa cells on vitronectin) came out at 0.1 µM.
